Measured values reported in US20140186365A1.

Legend:
[1] = biological target: Human Serum Albumin (human) (UniProt P02768); assay: BLI (Octet Red), HSA on sensor tips, VH domain in solution, 1:1 fit
[2] = biological target: Mouse Serum Albumin (mouse) (UniProt P07724); assay: BLI (Octet Red), MSA on sensor tips, VH domain in solution, 1:1 fit
Chain of UniProt P07724 (P07724 25-608 limits assumed): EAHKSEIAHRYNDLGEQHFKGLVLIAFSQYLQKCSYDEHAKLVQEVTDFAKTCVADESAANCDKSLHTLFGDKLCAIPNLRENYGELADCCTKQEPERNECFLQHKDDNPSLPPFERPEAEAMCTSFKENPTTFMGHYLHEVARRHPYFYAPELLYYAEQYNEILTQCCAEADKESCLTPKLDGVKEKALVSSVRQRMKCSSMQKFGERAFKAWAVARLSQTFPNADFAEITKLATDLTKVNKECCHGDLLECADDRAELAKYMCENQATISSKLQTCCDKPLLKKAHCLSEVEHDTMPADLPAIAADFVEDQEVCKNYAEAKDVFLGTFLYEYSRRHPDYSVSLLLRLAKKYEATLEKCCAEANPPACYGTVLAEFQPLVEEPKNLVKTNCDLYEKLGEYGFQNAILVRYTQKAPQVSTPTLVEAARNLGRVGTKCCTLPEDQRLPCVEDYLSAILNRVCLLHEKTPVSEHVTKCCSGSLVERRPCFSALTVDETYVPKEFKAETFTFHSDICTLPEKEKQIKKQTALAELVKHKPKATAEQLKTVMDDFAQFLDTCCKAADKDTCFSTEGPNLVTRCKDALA

Chain of UniProt P02768 (P02768 25-609 limits assumed): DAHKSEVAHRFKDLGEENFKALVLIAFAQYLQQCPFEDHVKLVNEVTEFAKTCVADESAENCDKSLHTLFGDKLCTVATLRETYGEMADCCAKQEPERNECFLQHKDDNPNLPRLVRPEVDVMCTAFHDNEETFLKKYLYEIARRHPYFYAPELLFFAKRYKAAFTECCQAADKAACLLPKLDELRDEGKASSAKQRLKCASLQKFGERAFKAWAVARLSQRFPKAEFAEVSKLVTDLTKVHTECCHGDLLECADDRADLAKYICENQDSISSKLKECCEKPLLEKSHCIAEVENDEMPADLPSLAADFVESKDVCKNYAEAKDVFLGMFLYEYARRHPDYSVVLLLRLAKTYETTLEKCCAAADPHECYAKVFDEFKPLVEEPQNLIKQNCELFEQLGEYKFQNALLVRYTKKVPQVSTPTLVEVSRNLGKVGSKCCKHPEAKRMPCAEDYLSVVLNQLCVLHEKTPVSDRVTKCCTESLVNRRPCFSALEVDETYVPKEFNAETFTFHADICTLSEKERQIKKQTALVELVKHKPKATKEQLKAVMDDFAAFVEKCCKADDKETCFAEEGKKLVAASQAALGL

B1: VH-3E11 (protein)
VH: QVQLQQSGPGLVKPSQTLSLTCAISGDSVSGNSAAWNWIRQSPSRGLEWLGRTYYRSKWYIGYAASLQSRLAINADTSKNQLSLRLSSVTPEDTAVYYCVGRHYSGHSGAFDTWGHGTMVTVSSSASGAGS
[1]
  Kd: 0.0236 µM
  koff: 0.000133 s⁻¹
  kon: 5630 M⁻¹ s⁻¹
[2]
  Kd: 0.0393 µM
  koff: 0.000226 s⁻¹
  kon: 5750 M⁻¹ s⁻¹

B2: VH-3C2 (protein)
VH: QVQLQQSGPGLVKPSQTLSLTCAISGDSVSSKSAAWNWIRQSPSRGLEWLGRTYYRSKWYNDYVVSLRSRITVSPDTSKNQFSLQLNSVTPEDTAMYYCARTRGHIDLWGRGTLVTVSSSASGAGS
[1]
  Kd: 0.0238 µM
  koff: 0.000155 s⁻¹
  kon: 6500 M⁻¹ s⁻¹
[2]
  Kd: 0.0318 µM
  koff: 0.000218 s⁻¹
  kon: 6870 M⁻¹ s⁻¹

B3: VH-1C5 (protein)
VH: QVQLQQSGPGLVKPSQTLSLTCAISGDSVSSNSAAWNWIRQSPSRGLEWLGRTYYRSKWYNDYAVSVKSRITINPDTSKNQFSLQLNSVTPEDTAVYYCARTPSTGTLDCWGRGTLVTVSSSASGAGS
[1]
  Kd: 0.0182 µM
  koff: 9.58e-05 s⁻¹
  kon: 5260 M⁻¹ s⁻¹
[2]
  Kd: 0.00632 µM
  koff: 5.42e-05 s⁻¹
  kon: 8570 M⁻¹ s⁻¹

B4: VH-4D6 (protein)
VH: EVQLVQSGAEVKKPGESLKISCKGSGYSFTSYWIGWVRQMPGKGLEWMGIIYPGDSDTRYSPSFQGQVTISADKSISTAYLQWSSLKASDTAMYYCARLDCSGGSCYYYYYGMDVWGQGTTVTVSSSASGAGS
[1]
  Kd: 0.0133 µM
  koff: 0.000141 s⁻¹
  kon: 10600 M⁻¹ s⁻¹
[2]
  Kd: 0.0126 µM
  koff: 0.000105 s⁻¹
  kon: 8340 M⁻¹ s⁻¹

B5: VH-3B11 (protein)
VH: EVQLVQSGAEVKKPGESLKISCKGSGYSFTSYWIGWVRQMPGKGLEWMGIVYPGDSDTRYSPSFQGQVTISAGKSISTAYLQWSSLKASDTAMYYCARPSMGATTWISAFDIWGQGTTVTVSSSASGAGS
[1]
  Kd: 0.0181 µM
  koff: 0.000126 s⁻¹
  kon: 6980 M⁻¹ s⁻¹
[2]
  Kd: 0.00961 µM
  koff: 7.88e-05 s⁻¹
  kon: 8200 M⁻¹ s⁻¹
